Here are results for 16 molecules from patent publication US20180186871A1 (SINGAPORE HEALTH SERVICES PTE, published 2018).

Changes are numbered by the printed parent chain. Like-named read-outs stand apart in the source and are kept apart here.

For assay [1], the target named is T1, FLAG-tagged human IL-11 expressed at the cell surface (human, UniProt P20809 22-199).
T1 construct: whole, on cells; also called IL-11 expressing HEK cells; target cells expressing human IL-11 at their surface; not shown: how the protein is held at
T1 sequence (looked up): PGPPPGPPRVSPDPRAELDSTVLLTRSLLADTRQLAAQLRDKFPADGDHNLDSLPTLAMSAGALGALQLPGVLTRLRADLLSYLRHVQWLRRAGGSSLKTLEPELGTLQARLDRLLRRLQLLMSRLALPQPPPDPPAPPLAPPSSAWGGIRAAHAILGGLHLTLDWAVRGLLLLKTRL
Briefly: flow cytometry of hybridoma subclone supernatants on cells transfected with pB1-IL11-hum.FL (FLAG-tagged human IL-11 at the cell surface), anti-mouse IgG detection; sheet says 'flow cytometry (Attunes)', legend says iQue.

Assay [2] deals with T2, human IL-11 (human, UniProt P20809 22-199).
T2 construct: In the ELISAs this is recombinant human IL-11 coated on the plate (expressed in CHO cells as Fc-tagged and tag-free versions); In the fibroblast assays it is the IL-11 produced by human fibroblasts after TGFβ1 stimulation; also called recombinant human IL-11 (GenScript Cat. No. Z03108-1); interleukin 11
T2 sequence (looked up): T1 sequence (looked up)
In words: indirect ELISA on plate-coated recombinant human IL-11 (1 µg/mL), detection with HRP anti-human IgG (Fc-specific), absorbance 450-570 nm. On the technique in general: An ELISA detects its analyte on a solid surface through an enzyme-linked reagent.

Assay [3] concerns the target T2, human IL-11. In words: EC50 from the indirect ELISA titrations of FIGS. 28A-28F on plate-coated recombinant human IL-11 (five-parameter fit), ng/ml is the concentration unit of FIG. 28 and paragraph 502.
The target in assay [4] is T2, human IL-11. Briefly: indirect ELISA on plate-coated recombinant human IL-11 (1 µg/mL), detection with HRP anti-human IgG (Fc-specific), absorbance 450-570 nm. This is another data set of the same source.
Assay [5] concerns the target T2, human IL-11. Briefly: EC50 by indirect ELISA on plate-coated recombinant human IL-11 (five-parameter fit); no titration curve of Yu33-B4 is drawn in FIGS. 28A-28F, ng/ml is the concentration unit of FIG. 28 and paragraph 502.
Assay [6] concerns the target T2, human IL-11. In words: ELISA binding signal.
For assay [7], the target named is T2, human IL-11. In words: cell-based or functional assay.
Assay [8] has as its target T2, human IL-11. In words: ELISA on coated recombinant human IL-11, scFv-Fc dilution series.
Assay [9] concerns the target T2, human IL-11. In words: indirect ELISA on plate-coated recombinant human IL-11 (1 µg/mL), detection with HRP anti-human IgG (Fc-specific), absorbance 450-570 nm. This is another data set of the same source.

B1: BSN-2G6 (antibody, V domains shown)
VH: QVQLQESGPELVKPGASVKIPCKASGYTFTDYNMDWVKQSHGKSLEWIGNINPDNGGTIYNQKFKGKATLTVDKSSSTAYMELRSLTSEDTAVYFCAREGPYGYTWFAYWGQGTLDTVSA
VL: DILLTQSPAILSVSPGERVSFSCRASQSIGTSIHWYQQRTNGSPRLLIKYASESISGIPSRFSGSGSGTDFTLSINSVESEDIADYYCQQSNSWPLTFGAGTKLELK
notes: mouse monoclonal anti-human IL-11 antibody from a hybridoma; also called A5
Take B1: the “% positive (anti-FLAG positive control = 100%)” value (shortened to “% positive”) in assay [1] is 23%.

B2: YU45-F2 (Fc fusion)
VH: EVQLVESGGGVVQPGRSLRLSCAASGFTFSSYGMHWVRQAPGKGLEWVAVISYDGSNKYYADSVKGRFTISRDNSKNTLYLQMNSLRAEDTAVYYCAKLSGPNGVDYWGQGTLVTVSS
VL: QPVLTQPRSVSGSPGQSVTISCTGTSSDVGGYNYVSWYQQHPGKAPKVMIYDVSKRPSGVPDRFSGSKSGNTASLTISGLQAEDEADYYCCSYAGSYTWVFGGGTKLTVL
notes: tested as scFv-Fc (human IgG1); also called #24
Take B2: in the assay with human IL-11 [2], the EC50 (read off the curve) (in general, the concentration that produces a half-maximal response) is about 0.004 µg/mL. Further, the EC50 – broadly, the concentration at which the effect is half-maximal – with human IL-11 [3] was 0.00424 µg/mL.

B3: Yu33-H3 (IgG) (antibody, V domains shown)
VH: EVQLVESGGGFVKPGGSLSISCAASGFTFSGAYMNWVRQAPGKGLEWVAVISYDGSNKYYADSVKGRFTISRDNSKNTLYLQMNSLRAEDTAVYYCARDLYAFDIWGQGTMVTVSS
VL: LPVLTQPHSVSESPGRTVTISCTRNTGNIASNRVQWYQQRPASAPTVVIYDNHQRPSGVPDRFSGSIDTSPNSAYLTISGLKTEDEADYYCQSYDYSSVIFGGGTQLTVL
notes: also called YU33-B3/H3; #2
Consider B3, for which, in the assay with human IL-11 [4], the binding result is on record as “binds”.

B4: BSN-7D4 (antibody, V domains shown)
VH: EVQLQQSGPELVKPGASVKISCKASGYTFTDYNMDWVKQSQGKRLEWIGDINPNYGGTIYNQKFKGKATLTVDKSSSTAYMELRSLTSEDTTVYYCTRGELGHWYFDVWGTGTTVTVSS
VL: DIVLTQSPPSLTVSLGQRATISCRASKSVSASGYSYMHWYQQKPGQPPKLLIYLTSNLESGVPARFSGSGSGTDFTLNIHPVEEEDAATYYCQHSWDLPPTFGGGTKLEIK
In the case of B4, in [1], the “% positive” value worked out at 176%.

B5: Yu45-G8 (Fc fusion, not shown: a dimerising Fc or GST; small tags and cut ends)
VH: EVQLVESGGGVVQPGRSLRLSCAASGFTFSSYGMHWVRQAPGKGLEWVAVISYDGSNKYYADSVKGRFTISRDNSKNTLYLQMNSLRAEDTAVYYCAKFARGVYLFDYWGQGTLVTVSS
VL: QSALTQPASVSGSPGQSITISCTGTSSDVGGYDYVSWYQQHPGTAPKLMISDVHNRPLGVSNRFSGSKSGNTASLTISGLQAEDEADYYCSSYTSSITWVFGGGTKLTVL
notes: also called YU45-G8/H6; #19
Consider B5, for which, in the assay with human IL-11 [2], the “EC50 (read off the curve)” value was about 0.006 µg/mL. In addition, the EC50 with human IL-11 [3] was 0.00629 µg/mL.

B6: YU33-B4/YU45-G2/A3 (Fc fusion)
VH: EVQLVESGGGVVQPGRSLRLSCAASGFTFSSYGMHWVRQAPGKGLEWVAVISYDGSNKYYADSVKGRFTISRDNSKNTLYLQMNSLRAEDTAVYYCAKIGATDPLDYWGQGTLVTVSS
VL: B5 VL with D33N, T44K, S51Y, H54S, L58S, S78F, I97S, T98S
notes: tested as scFv-Fc (human IgG1)
With B6, the EC50 with human IL-11 [5] turned out to be 0.198 µg/mL; with human IL-11 [3], 0.0142 µg/mL.

B7: BSN-1H2 (antibody, V domains shown)
VH: QAQLQQSGAELARPGASVKLSCKASGYTFTSYGITWVKQRTGQGLEWIGDIYPRSGNIYYNENFKGEATLTADKSSSTAYMQLSRLTSEDSAVYFCARSGWEGWFAYWGQGTLVTVSV
VL: DIVMTQSHKFMSTSVGDRVNITCKASQDVGSAVVWYQQKPGQSPKVLIYWASTRHTGVPDRFTGSGSGTDFTLTISNVQSEDLADYFCQQYSSYRTFGGGTKLEIK
Regarding B7, the “% positive” value in assay [1] was 157%.

B8: BSN-5B8 (antibody, V domains shown)
VH: QVQLQQSGAELARPGTSVKLSCKASGYTFTSYGISWVKQRTGQGLEWIGEIYPRSSNTYYNEKFKGKATLTADKSSSTAYMELRSLTSEDSADYFCARANWVGYFDVWGTGTTVTVSS
VL: B7 VL with N20T, S31T, V34A, V46L, H55L, D70Y, S76N
notes: mouse monoclonal anti-human IL-11 antibody from a hybridoma; also called A9
For B8, the “% positive” value in assay [1] turned out to be 188%.

B9: BSN-2E1 (antibody, V domains shown)
VH: QVQLQESGPELVKPGASVKIPCKASGYTFTDYNMDWVKQSHGKSLEWIGDINPHNGGPIYNQKFTGKATLTVDKSSSTAYMELRSLTSEDTAVYYCARGELGHWYFDVWGTGTTVTVSS
VL: NIVMTQSPKSMSMSVGERVTLTCKASENVVTYVSWYQQKPEQSPKLLIYGASNRYTGVPDRFTGSGSATDFTLTISSVQAEDLADYHCGQGYSYPYTFGGGTKLEIK
notes: mouse monoclonal anti-human IL-11 antibody from a hybridoma; also called A3
For B9, in assay [1], the “% positive” value was determined as 164%.

B10: BSN-3C6 (antibody, V domains shown)
VH: B9 VH with Q1E, E6Q
VL: B4 VL with P9A, T12A, A31T, M37I, T55A, E59D, W96R
Take B10: in [1], the “% positive” value amounted to 176%.

B11: BSN-8H11 (antibody, V domains shown)
VH: B4 VH with S21P, M34I, Q41H, R44S, I59L, T92A, T97A
VL: B4 VL with P9A, T12A, A31T, G33D, Q46H, T55A, Y91F, W96R
For B11, the “% positive” value in assay [1] was found to be 190%.

B12: YU100-H01 (scFv)
scFv: QVQLVQSGGGVVQPGRSLRLSCAASGFTFSSYAMHWVRQAPGKGLEWVAVISYDGSNKYYADSVKGRFTISRDNSKNTLYLQMNSLRAEDTAVYYCARIMGYDYGDYDVVDYWGQGTLVTVSSGSASAPKLEEGEFSEARVQSALTQPRSVSGSPGQSVTISCTGTSSDVGAYNYVSWYQQHPGKAPKLMIYDVSERPSGVPDRFSGSKSGNTASLTISGLQAEDEADYYCCSYAGSYTWVFGGGTKLTVL
notes: light chain-shuffled human anti-IL-11 clone
Regarding B12, the “hIL11 - average signal” value with human IL-11 [6] amounted to 0.43. Moreover, in the assay with human IL-11 [7], the “MMP2 production (ng/ml), TGFB1-stimulated human atrial fibroblasts, Experiment 1 (NEG 42.7, POS 70.2)” value (“MMP2 production (ng/ml) … (NEG 42.7, POS 70.2)” below) was determined as 48.3 ng/mL and the “MMP2 production (ng/ml), TGFB1-stimulated human atrial fibroblasts, Experiment 2 (NEG 36.2, POS 62.3)” value (“MMP2 production (ng/ml) … (NEG 36.2, POS 62.3)” below) was 42.2 ng/mL. In addition, in the assay with human IL-11 [8], the EC50 turned out to be 0.053 µg/mL.

B13: Yu33-A2 (IgG) (antibody, V domains shown)
VH: QLQQSGPGLVKPSQTLSLTCAISGDSVSSNSAAWNWIRQSPSRGLEWLGRTYYRSKWYNDYAVSVKSRITINPDTSKNQFTLQLNSVTPDDTAVYYCARGTRGYFDYWGQGTLVTVSS
VL: DVVMTQSPSSLSASVGDRVTITCRASQDVGRYVAWYQQKVGKVPRLLIYAASALQSGVPSRFSGTASETSFTLTISSLQPEDVASYYCQQYRSAPLAFGGGTGVEIK
notes: also called #1
For the molecule B13, the binding result with human IL-11 [9] is “no binding (tested: 800 ng/ml)”.

B14: YU100-G08 (scFv)
scFv: QVQLVQSGGGVVQPGRSLRLSCAASGFTFSSYGMHWVRQAPGKGLEWVAVISYDGSNKYYADSVKGRFTISRDNSKNTLYLQMNSLRAEDTAVYYCAKIGATDPLDYWGQGTLVTVSSGSASAPKLEEGEFSEARVQSALTQPRSVSGSPGQSVTLSCTGTSSDVGGYNYVSWYQHYPGKAPKLMIFDVNERSSGVPDRFSGSKSGNTASLTISGLQAEDEADYYCCSYAGRYTWMFGGGTKVTVL
notes: as for B12
Consider B14, for which the “hIL11 - average signal” value in the assay with human IL-11 [6] was determined as 0.153. Moreover, in the assay with human IL-11 [7], the “MMP2 production (ng/ml) … (NEG 42.7, POS 70.2)” value is 42.3 ng/mL and the “MMP2 production (ng/ml) … (NEG 36.2, POS 62.3)” value was found to be 38 ng/mL. The 50% effective concentration (EC50) with human IL-11 [8] turned out to be 0.028 µg/mL.

B15: YU46-D3 (Fc fusion, not shown: a dimerising Fc or GST; small tags and cut ends)
VH: EVQLLESGGGVVQPGRSLRLSCAASGFTFSSYAMHWVRQAPGKGLEWVAVISYDGSNKYYADSVKGRFTSSRDNSKNTLYLQMNSLRAEDTAVYYCARSGVLDYWGQGTLVTVSS
VL: QSALTQPASVSGSPGQSITISCTGTSSDVGNYKYVSWYQQHPGKAPKLMIYDVSNRPSGVSNRFSGSKSGNTASLTISGLQAEDEADYYCSSYTSSSTLVVFGGGTKLTVL
notes: tested as scFv-Fc (human IgG1); also called #56
Consider B15, for which, in the assay with human IL-11 [3], the EC50 came to 0.655 µg/mL.

B16: YU100-F11 (scFv)
scFv: QVQLVESGGGVVQPGRSLRLSCAASGFTFSSYGMHWVRQAPGKGLEWVAVISYDGSNKYYADSVKGRFTISRDNSKNTLYLQMNSLRAEDTAVYYCAKIGATDPLDYWGQGTLVTVSSGSASAPKLEEGEFSEARVQSALTQPASVSGSPGQSITISCTGSSSDVAGYNYVSWYQQHPGKAPKLMIYDVTKRPSGVPDRFSGSKSGNTASLTISGLQAEDEADYYCCSYAGSYTWVFGGGTQLTVL
notes: as for B12
For the molecule B16, the “hIL11 - average signal” value in the assay with human IL-11 [6] was found to be 0.319. Moreover, in the assay with human IL-11 [7], the “MMP2 production (ng/ml) … (NEG 42.7, POS 70.2)” value was 44.5 ng/mL and the “MMP2 production (ng/ml) … (NEG 36.2, POS 62.3)” value came out at 37.6 ng/mL. For the same molecule, the EC50 with human IL-11 [8] is 0.027 µg/mL.
